Measurements from patent US20210190798A1, “METHODS OF QUANTIFYING LIF AND USES THEREOF” (MEDIMMUNE LIMITED, priority 2018, published 2021).

Biological target: LIF (Homo sapiens, UniProt P15018)
Experiment: Competitive binding assays against LIF (capture antibody screening)
Method: The capture antibody A4 (set forth in SEQ ID NOs: 41 and 42) was determined by screening potential antibodies using competitive binding assays against LIF.

Chain of LIF (P15018 23-202): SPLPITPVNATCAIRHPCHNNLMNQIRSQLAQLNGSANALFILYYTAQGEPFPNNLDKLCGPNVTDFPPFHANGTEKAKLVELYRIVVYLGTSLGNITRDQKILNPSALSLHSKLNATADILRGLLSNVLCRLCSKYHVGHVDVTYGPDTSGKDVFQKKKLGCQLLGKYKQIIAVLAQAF

binding to LIF: high binding
interference with binding by therapeutic antibody h5D8 or M017C3: did not interfere
B1: A4: rabbit monoclonal anti-LIF capture antibody, variable regions SEQ ID NOs: 41 and 42 (antibody, V domains shown)
VH: EQLEESVGDLVKPGASLTLTCTASGFSFSGLYYMCWVRQAPGKGLEWIACIWTGSTDSTYYATWAKGRFTISKTSSTTVTLQMTSLTVADTATYFCARGGGVPGDGYALWGPGTLVTVSS
VL: GTELVMTQTPASVSEPVGGTVTINCQASEDISSNLVWYQQKSGQPPKLLIYDASMLASGVPSRFKGSGSGTQFTLTISDLECADGATYYCQSYYVASSSYFVNGFGGGTEVV
